Paper PMC5048593
Each block holds one substance with its values, some of them ahead of it.

Columns and labels:
Experiment in all cases: ITC
[1] = molecular target: p107^ΔPL containing six mutations to the Rb sequence (p107^6x) (human) (UniProt P28749)
p107^ΔPL H797R (human) = p107^ΔPL H797R (human) (UniProt P28749)
p107^ΔPL E560H (human) = p107^ΔPL E560H (human) (UniProt P28749)
p107^ΔPL V490K (human) = p107^ΔPL V490K (human) (UniProt P28749)
[2] = molecular target: phosphorylated p107^ΔPL982 (human) (UniProt P28749)
[3] = molecular target: Rb pocket domain lacking its large internal loop (Rb^ΔPL: residues 380–787 with 581–642 deleted) (human) (UniProt P06400)

fold higher affinity than p107^ΔPL [1]: 3 fold
Substance: E2F1 transactivation domain (E2F1^TD) (domain or fragment)

fold higher affinity than p107^ΔPL [1]: 24 fold
fold increase in affinity over p107^ΔPL (p107^ΔPL H797R (human)): 3 fold
fold increase in affinity over p107^ΔPL (p107^ΔPL E560H (human)): 3 fold
fold increase in affinity over p107^ΔPL (p107^ΔPL V490K (human)): 3 fold
Substance: E2F2 transactivation domain (E2F2^TD) (domain or fragment)

fold reduction in affinity against unphosphorylated p107^ΔPL982 [2]: 3 fold
Substance: E2F4 transactivation domain (E2F4^TD) (domain or fragment)

fold increase in affinity over wild-type E2F4^TD [3]: 5 fold
Substance: E2F4^TD N395G (domain or fragment)
